For test [1], the target named is mouse PERIOD1 (mPER1), in vitro translated, 35S-methionine-labeled (mouse, UniProt O35973 1-1291, limits assumed). In words: in vitro binding, S-agarose-bound recombinant CK1ε with 35S-labeled in vitro translated mPER1. As for the experimental part:
(§1) Half of the bound beads were then added to a kinase reaction as described above and in Example 3 below, but without c-casein or phosvitin, and incubated at 37° C. for 5 minutes. […] Reactions were separated on 12% SDS-PAGE gels, dried and exposed to phosphor screens. Following exposure to detect both the ^35S and ^32P signals, dried gels were covered with two layers of exposed X-OMAT film to block the ^35S signal. […] PER signal is indicated by filled triangles.
(§2) Per binding studies: For binding assays, mPER1 and mPER2 were synthesized from cDNAs cloned in plasmids by coupled in vitro transcription/translation reactions using ^35S-methionine in a total reaction volume of 50 μl (TNT T7 Coupled Reticulocyte Lysate System, Promega). Recombinant CK1ε was purified from *E. coli* by capture on S-agarose beads as described above. To reduce non-specific binding, 20 μl of in vitro-translated product was mixed with 50 μl of plain S-agarose beads in HND buffer (20 mM HEPES, pH 7.5, 100 mM KCl, 10% glycerol, 0.4% NP40, 1 mM DTT) with 5% BSA. This mixture was incubated at room temperature with shaking for 1 hour. Following incubation, the mixture was centrifuged at 2500 rpm for 5 minutes and the resulting supernatant was divided into two equal aliquots. […]

Test [2] addresses mouse PERIOD2 (mPER2), in vitro translated, 35S-methionine-labeled (mouse, UniProt O54943 1-1257, limits assumed). Nature of the test: in vitro binding, S-agarose-bound recombinant CK1ε with 35S-labeled in vitro translated mPER2. As for the experimental part:
as §1, §2

The target in test [3] is T1, GST (Glutathione-S-transferase) alone (UniProt P08515 1-218 = GST).
T1 construct: Control in the pull-down assay
T1 sequence (P08515 whole entry): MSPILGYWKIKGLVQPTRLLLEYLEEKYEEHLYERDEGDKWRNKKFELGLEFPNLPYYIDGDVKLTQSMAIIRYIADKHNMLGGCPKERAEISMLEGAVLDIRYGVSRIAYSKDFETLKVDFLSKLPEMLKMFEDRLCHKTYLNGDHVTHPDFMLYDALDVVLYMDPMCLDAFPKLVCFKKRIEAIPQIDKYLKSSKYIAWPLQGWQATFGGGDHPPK
In words: GST pull-down, 35S-labeled in vitro translated DBT, SDS-PAGE and autoradiography. From the text: (§3) The staining confirms that similar amounts of GST and GST-PER fusion proteins were used in the assay. Arrow indicates BSA present in all the washes. (Right) GST alone and the indicated GST-PER fusions were used to bind in vitro translated, ^35S-labeled DBT protein. Labeled DBT proteins that bound to the indicated GST-PER fusions were visualized by SDS-PAGE and autoradiography. […] For hs-gfp-dbt, GFP was fused to the amino terminus of DBT.

For test [4], the target named is T2, GST-PER 530-640 fusion protein (Drosophila, UniProt P07663 530-640).
T2 construct: range 530-640; Constructed as described in Saez and Young 1996 (cited); Immobilized on glutathione agarose beads; also called aa 530-640 of PER; not shown: Glutathione-S-transferase (GST) fusion partner
T2 sequence (looked up): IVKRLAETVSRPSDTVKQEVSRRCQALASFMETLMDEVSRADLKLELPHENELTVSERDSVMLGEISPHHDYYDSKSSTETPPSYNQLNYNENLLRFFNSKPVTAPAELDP
Described as above.
From the text: as §3

Three molecules from US6476188 (ROCKEFELLER UNIVERSITY, dated 2002) can be followed below.

Chain of mouse PERIOD1 (mPER1), in vitro translated, 35S-methionine-labeled (O35973 whole entry): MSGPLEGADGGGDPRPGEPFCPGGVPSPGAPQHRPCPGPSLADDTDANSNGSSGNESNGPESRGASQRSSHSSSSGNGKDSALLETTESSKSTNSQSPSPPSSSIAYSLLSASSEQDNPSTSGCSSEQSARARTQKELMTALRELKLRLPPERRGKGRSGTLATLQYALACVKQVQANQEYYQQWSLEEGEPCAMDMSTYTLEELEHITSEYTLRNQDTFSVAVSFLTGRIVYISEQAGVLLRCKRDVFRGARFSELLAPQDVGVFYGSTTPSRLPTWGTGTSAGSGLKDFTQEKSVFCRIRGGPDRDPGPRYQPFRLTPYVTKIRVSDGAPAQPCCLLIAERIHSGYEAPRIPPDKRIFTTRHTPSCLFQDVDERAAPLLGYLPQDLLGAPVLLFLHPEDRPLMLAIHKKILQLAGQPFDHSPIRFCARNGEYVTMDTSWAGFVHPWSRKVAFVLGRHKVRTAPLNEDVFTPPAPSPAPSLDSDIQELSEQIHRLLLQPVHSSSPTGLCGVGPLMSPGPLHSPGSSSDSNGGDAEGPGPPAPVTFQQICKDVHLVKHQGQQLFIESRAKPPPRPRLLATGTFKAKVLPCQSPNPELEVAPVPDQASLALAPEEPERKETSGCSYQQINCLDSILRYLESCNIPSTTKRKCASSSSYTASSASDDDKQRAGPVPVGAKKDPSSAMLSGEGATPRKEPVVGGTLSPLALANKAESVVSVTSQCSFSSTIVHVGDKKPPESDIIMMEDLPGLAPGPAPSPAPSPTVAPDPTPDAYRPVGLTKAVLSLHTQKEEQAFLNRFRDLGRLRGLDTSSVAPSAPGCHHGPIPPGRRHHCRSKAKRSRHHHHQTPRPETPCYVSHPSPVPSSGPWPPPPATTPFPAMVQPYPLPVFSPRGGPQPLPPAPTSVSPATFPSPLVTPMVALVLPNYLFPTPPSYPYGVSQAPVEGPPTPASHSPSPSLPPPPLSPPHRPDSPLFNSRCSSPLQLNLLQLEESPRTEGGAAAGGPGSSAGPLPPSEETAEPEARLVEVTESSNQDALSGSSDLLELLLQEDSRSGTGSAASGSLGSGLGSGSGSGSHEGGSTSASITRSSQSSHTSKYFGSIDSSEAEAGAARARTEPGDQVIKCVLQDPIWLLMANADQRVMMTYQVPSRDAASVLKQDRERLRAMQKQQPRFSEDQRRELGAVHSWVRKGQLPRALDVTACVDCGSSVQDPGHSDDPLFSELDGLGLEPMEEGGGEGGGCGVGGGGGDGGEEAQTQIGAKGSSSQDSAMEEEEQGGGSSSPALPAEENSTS
Chain of mouse PERIOD2 (mPER2), in vitro translated, 35S-methionine-labeled (O54943 whole entry): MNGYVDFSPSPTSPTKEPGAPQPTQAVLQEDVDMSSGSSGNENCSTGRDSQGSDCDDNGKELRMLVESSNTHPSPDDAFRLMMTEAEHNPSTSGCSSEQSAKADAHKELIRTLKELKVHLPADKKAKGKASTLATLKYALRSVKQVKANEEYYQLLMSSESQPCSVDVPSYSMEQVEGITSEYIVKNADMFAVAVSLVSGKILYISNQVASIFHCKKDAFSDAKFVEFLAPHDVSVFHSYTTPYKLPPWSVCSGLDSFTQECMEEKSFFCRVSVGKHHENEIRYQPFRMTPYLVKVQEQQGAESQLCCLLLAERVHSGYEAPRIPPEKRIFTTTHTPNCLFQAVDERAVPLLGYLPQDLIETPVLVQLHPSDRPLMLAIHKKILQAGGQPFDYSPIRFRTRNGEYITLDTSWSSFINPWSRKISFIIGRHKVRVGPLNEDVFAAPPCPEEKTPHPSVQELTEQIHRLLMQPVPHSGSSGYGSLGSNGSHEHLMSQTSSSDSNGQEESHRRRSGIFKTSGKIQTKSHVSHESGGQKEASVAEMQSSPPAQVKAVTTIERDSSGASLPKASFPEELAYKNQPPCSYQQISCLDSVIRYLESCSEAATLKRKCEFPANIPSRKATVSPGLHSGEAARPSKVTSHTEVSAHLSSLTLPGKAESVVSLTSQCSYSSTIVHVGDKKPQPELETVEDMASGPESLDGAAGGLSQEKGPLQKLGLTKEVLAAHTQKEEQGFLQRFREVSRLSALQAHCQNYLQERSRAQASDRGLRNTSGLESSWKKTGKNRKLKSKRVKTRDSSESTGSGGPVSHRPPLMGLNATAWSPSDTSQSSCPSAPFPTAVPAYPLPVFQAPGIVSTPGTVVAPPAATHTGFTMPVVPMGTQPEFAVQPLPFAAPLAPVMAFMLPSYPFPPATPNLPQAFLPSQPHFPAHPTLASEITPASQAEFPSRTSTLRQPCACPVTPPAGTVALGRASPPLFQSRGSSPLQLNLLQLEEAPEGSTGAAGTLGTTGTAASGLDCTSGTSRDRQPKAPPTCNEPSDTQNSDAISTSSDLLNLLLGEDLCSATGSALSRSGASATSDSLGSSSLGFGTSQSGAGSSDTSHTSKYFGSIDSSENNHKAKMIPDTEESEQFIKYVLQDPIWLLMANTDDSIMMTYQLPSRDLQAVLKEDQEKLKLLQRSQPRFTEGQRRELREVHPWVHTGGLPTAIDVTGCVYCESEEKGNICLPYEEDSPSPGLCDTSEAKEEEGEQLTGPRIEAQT

B1: recombinant wild-type hamster CK1ε with N-terminal S•Tag and His-Tag fusions, captured on S-protein agarose (enzyme)
chain: MELRVGNKYRLGRKIGSGSFGDIYLGANIASGEEVAIKLECVKTKHPQLHIESKFYKMMQGGVGIPSIKWCGAEGDYNVMVMELLGPSLEDLFNFCSRKFSLKTVLLLADQMISRIEYIHSKNFIHRDVKPDNFLMGLGKKGNLVYIIDFGLAKKYRDARTHQHIPYRENKNLTGTARYASINTHLGIEQSRRDDLESLGYVLMYFNLGSLPWQGLKAATKRQKYERISEKKMSTPIEVLCKGYPSEFSTYLNFCRSLRFDDKPDYSYLRQLFRNLFHRQGFSYDYVFDWNMLKFGAARNPEDVDRERREHEREERMGQLRGSATRALPPGPPTGATANRLRSAAEPVASTPASRIQQAGNTSPRAISRADRERKVSMRLHRGAPANVSSSDLTGRQEVSRISASQTSVPFDHLGK
notes: Full-length cDNA expressed in E. coli BL21(DE3)pLysS; The preparation holds both autophosphorylated and unphosphorylated forms; also called wild-type CK1ε; WT; not shown: N-terminal S•Tag (15 amino acids) and His-Tag fusion from the pET-30 LIC vector
As for B1, the binding result in test [1] and in test [2] was “binds” throughout.

B2: recombinant tau mutant hamster CK1ε (Arg178Cys) with N-terminal S•Tag and His-Tag fusions, captured on S-protein agarose (enzyme)
chain: MELRVGNKYRLGRKIGSGSFGDIYLGANIASGEEVAIKLECVKTKHPQLHIESKFYKMMQGGVGIPSIKWCGAEGDYNVMVMELLGPSLEDLFNFCSRKFSLKTVLLLADQMISRIEYIHSKNFIHRDVKPDNFLMGLGKKGNLVYIIDFGLAKKYRDARTHQHIPYRENKNLTGTACYASINTHLGIEQSRRDDLESLGYVLMYFNLGSLPWQGLKAATKRQKYERISEKKMSTPIEVLCKGYPSEFSTYLNFCRSLRFDDKPDYSYLRQLFRNLFHRQGFSYDYVFDWNMLKFGAARNPEDVDRERREHEREERMGQLRGSATRALPPGPPTGATANRLRSAAEPVASTPASRIQQAGNTSPRAISRADRERKVSMRLHRGAPANVSSSDLTGRQEVSRISASQTSVPFDHLGK
notes: Full-length tau cDNA expressed in E. coli; Arg #178 of the wild-type protein is replaced by cysteine; also called tau CK1ε; tau mutant enzyme; not shown: N-terminal S•Tag (15 amino acids) and His-Tag fusion from the pET-30 LIC vector
Turning to B2, the binding result in test [1] and in test [2] was “binds” in each case.

B3: DOUBLETIME protein (DBT), Drosophila, in vitro translated from dbt cDNA P12, 35S-labeled (enzyme)
chain: MELRVGNKYRLGRKIGSGSFGDIYLGTTINTGEEVAIKLECIRTKHPQLHIESKFYKTMQGGIGIPRIIWCGSEGDYNVMVMELLGPSLEDLFNFCSRRFSLKTVLLLADQMISRIDYIHSRDFIHRDIKPDNFLMGLGKKGNLVYIIDFGLAKKFRDARSLKHIPYRENKNLTGTARYASINTHLGIEQSRRDDLESLGYVLMYFNLGALPWQGLKAANKRQKYERISEKKLSTSIVVLCKGFPSEFVNYLNFCRQMHFDQRPDYCHLRKLFRNLFHRLGFTYDYVFDWNLLKFGGPRNPQAIQQAQDGADGQAGHDAVAAAAAVAAAAAASSHQQQQHKVNAALGGGGGSRAQQQLQGGQTLAMLGGNGGGNGSQLIGGNGLNMDDSMAATNSSRPPYDTPERRPSIRMRQGGGGGGGGVGVGGMQSGGGGGGVGNAK
notes: In vitro translated, 35S-labeled; about 46 kDa by SDS-PAGE; the open reading frame predicts 440 aa; also called Drosophila CK1ε
Consider B3, for which the binding result in test [3] and in test [4] was “no binding” in each case.
